Holding throughout (type): biochemical, Homo sapiens
Substrate in data set [1]: O=P(O)(O)O[C@H]1O[C@H](CO)[C@H](O)[C@H](O)[C@H]1O
The data set can be described thus: continuous assay based on PPi detection, forward reaction, Michaelis-Menten and cooperative fits. The note with it: Gal1P varied 0.01-2 mM at 1 mM UTP.

Substrate in data set [2]: O=c1ccn([C@@H]2O[C@H](COP(=O)(O)OP(=O)(O)OP(=O)(O)O)[C@@H](O)[C@H]2O)c(=O)[nH]1
The data set can be described thus: continuous assay based on PPi detection, forward reaction, Michaelis-Menten fit. The note with it: UTP varied 0.01-0.8 mM at 2 mM Glc1P.

Substrate in data set [3]: O=P(O)(O)O[C@H]1O[C@H](CO)[C@@H](O)[C@H](O)[C@H]1O
The description is as above. The note with it: Glc1P varied 0.01-1 mM at 1 mM UTP.

This note sets out measurements from PMC7139386, “Defects in Galactose Metabolism and Glycoconjugate Biosynthesis in a UDP-Glucose Pyrophosphorylase-Deficient Cell Line Are Reversed by Adding Galactose to the Growth Medium” (International Journal of Molecular Sciences, 2020).

B1: HsUGP (Homo sapiens) (protein)
chain: MSRFVQDLSKAMSQDGASQFQEVIRQELELSVKKELEKILTTASSHEFEHTKKDLDGFRKLFHRFLQEKGPSVDWGKIQRPPEDSIQPYEKIKARGLPDNISSVLNKLVVVKLNGGLGTSMGCKGPKSLIGVRNENTFLDLTVQQIEHLNKTYNTDVPLVLMNSFNTDEDTKKILQKYNHCRVKIYTFNQSRYPRINKESLLPVAKDVSYSGENTEAWYPPGHGDIYASFYNSGLLDTFIGEGKEYIFVSNIDNLGATVDLYILNHLMNPPNGKRCEFVMEVTNKTRADVKGGTLTQYEGKLRLVEIAQVPKAHVDEFKSVSKFKIFNTNNLWISLAAVKRLQEQNAIDMEIIVNAKTLDGGLNVIQLETAVGAAIKSFENSLGINVPRSRFLPVKTTSDLLLVMSNLYSLNAGSLTMSEKREFPTVPLVKLGSSFTKVQDYLRRFESIPDMLELDHLTVSGDVTFGKNVSLKGTVIIIANHGDRIDIPPGAVLENKIVSGNLRILDH
notes: octameric
As for B1, the Km in data set [1] turned out to be 842.0 ± 72.8 µM; in data set [2], 76.29 ± 3.96 µM; in data set [3], 34.2 ± 1.99 µM.

B2: HsUGP (Homo sapiens; G116D) (protein)
chain: MSRFVQDLSKAMSQDGASQFQEVIRQELELSVKKELEKILTTASSHEFEHTKKDLDGFRKLFHRFLQEKGPSVDWGKIQRPPEDSIQPYEKIKARGLPDNISSVLNKLVVVKLNGDLGTSMGCKGPKSLIGVRNENTFLDLTVQQIEHLNKTYNTDVPLVLMNSFNTDEDTKKILQKYNHCRVKIYTFNQSRYPRINKESLLPVAKDVSYSGENTEAWYPPGHGDIYASFYNSGLLDTFIGEGKEYIFVSNIDNLGATVDLYILNHLMNPPNGKRCEFVMEVTNKTRADVKGGTLTQYEGKLRLVEIAQVPKAHVDEFKSVSKFKIFNTNNLWISLAAVKRLQEQNAIDMEIIVNAKTLDGGLNVIQLETAVGAAIKSFENSLGINVPRSRFLPVKTTSDLLLVMSNLYSLNAGSLTMSEKREFPTVPLVKLGSSFTKVQDYLRRFESIPDMLELDHLTVSGDVTFGKNVSLKGTVIIIANHGDRIDIPPGAVLENKIVSGNLRILDH
notes: octameric
As to B2, the results for the Km in data set [2] and in data set [3] were 79.50 ± 4.93 µM and 53.97 ± 4.11 µM, respectively.

As usually defined, the Km is the concentration of substrate that gives half-maximal velocity.
